Where no end group is shown, it is not given here. [ ]: non-standard residue; d: D form. pS = N[C@@H](COP(=O)(O)O)C(=O)O
T1: MLL-pM-A7 peptide on HLA-B*07:02 (human)
T1 peptide: EPR[pS]PSASM

T2: MLL-pM-A6 peptide on HLA-B*07:02 (human)
T2 peptide: EPR[pS]PAHSM

T3: MLL-pM-A2 peptide on HLA-B*07:02 (human)
T3 peptide: EAR[pS]PSHSM

T4: MLL-pM-A3 peptide on HLA-B*07:02 (human)
T4 peptide: EPA[pS]PSHSM

T5: MLL-pM-A9 peptide on HLA-B*07:02 (human)
T5 peptide: EPR[pS]PSHSA

T6: MLL-pM-A8 peptide on HLA-B*07:02 (human)
T6 peptide: EPR[pS]PSHAM

T7: MLL-pM-A5 peptide on HLA-B*07:02 (human)
T7 peptide: EPR[pS]ASHSM

T8: MLL-pM-A4 peptide on HLA-B*07:02 (human)
T8 peptide: EPRAPSHSM

T9: MLL-pM-A1 peptide on HLA-B*07:02 (human)
T9 peptide: APR[pS]PSHSM

T10: MLL (KMT2A), MLL-pP peptide on HLA-B*07:02 (human)
T10 peptide: RVR[pS]PTRSP


Tests used:
[1] = biological target: T1, MLL-pM-A7 peptide on HLA-B*07:02; assay: activation reporter or marker
[2] = biological target: T2, MLL-pM-A6 peptide on HLA-B*07:02; assay: activation reporter or marker
[3] = biological target: T3, MLL-pM-A2 peptide on HLA-B*07:02; assay: activation reporter or marker
[4] = biological target: T4, MLL-pM-A3 peptide on HLA-B*07:02; assay: activation reporter or marker
[5] = biological target: T5, MLL-pM-A9 peptide on HLA-B*07:02; assay: activation reporter or marker
[6] = biological target: T6, MLL-pM-A8 peptide on HLA-B*07:02; assay: activation reporter or marker
[7] = biological target: T7, MLL-pM-A5 peptide on HLA-B*07:02; assay: activation reporter or marker
[8] = biological target: T8, MLL-pM-A4 peptide on HLA-B*07:02; assay: activation reporter or marker
[9] = biological target: T9, MLL-pM-A1 peptide on HLA-B*07:02; assay: activation reporter or marker
[10] = biological target: T10, MLL (KMT2A), MLL-pP peptide on …; assay: multimer staining
[11] = biological target: T10, MLL (KMT2A), MLL-pP peptide on …; assay: activation reporter or marker

Row | binding result [1] | binding result [2] | binding result [3] | binding result [4] | binding result [5] | binding result [6] | binding result [7] | binding result [8] | binding result [9] | binding result [10] | binding result [11] | Binder
1 | no recognition | no recognition | no recognition | no recognition | no recognition | no recognition | no recognition | no recognition | no recognition | recognises |  | TCR0085 (TCR, V domains shown) Valpha: KQEVTQIPAALSVPEGENLVLNCSFTDSAIYNLQWFRQDPGKGLTSLLLIQSSQREQTSGRLNASLDKSSGRSTLYIAASQPGDSATYLCAVMLWNQGGKLIFGQGTELSVKP Vbeta: KAGVTQTPRYLIKTRGQQVTLSCSPISGHRSVSWYQQTPGQGLQFLFEYFSETQRNKGNFPGRFSGRQFSNSRSEMNVSTLELGDSALYLCASSLGRGYEQYFGPGTRLTVT
2 | no recognition | no recognition | no recognition | recognises | no recognition | recognises | no recognition | no recognition | no recognition |  | no recognition | TCR0077 (TCR, V domains shown) Valpha: TQLLEQSPQFLSIQEGENLTVYCNSSSVFSSLQWYRQEPGEGPVLLVTVVTGGEVKKLKRLTFQFGDARKDSSLHITAAQPGDTGLYLCAGYGGGSNYKLTFGAGTRLTVKP Vbeta: EAQVTQNPRYLITVTGKKLTVTCSQNMNHEYMSWYRQDPGLGLRQIYYSMNVEVTDKGDVPEGYKVSRKEKRNFPLILESPSPNQTSLYFCASRLTGRVHGYTFGPGTRLTVL
